Test results as given in article PMC10365013 (2022).

Columns and labels:
[1] = biological target: PP1CA-HRAS (Homo sapiens, UniProt P62136); experiment: SPR
[2] = biological target: PP1CA-NRAS (Homo sapiens, UniProt P62136); experiment: SPR
[3] = biological target: PP1CA-KRAS (Homo sapiens, UniProt P62136); experiment: SPR
[4] = biological target: PP1CA-MRAS (Homo sapiens, UniProt P62136); experiment: ITC

Kd [1]: 2 µM
Kd [2]: 4 µM
Kd [3]: 0.7 µM
Kd [4]: ~0.35 µM
B1: SHOC2 (protein)
chain: MSSSLGKEKDSKEKDPKVPSAKEREKEAKASGGFGKESKEKEPKTKGKDAKDGKKDSSAAQPGVAFSVDNTIKRPNPAPGTRKKSSNAEVIKELNKCREENSMRLDLSKRSIHILPSSIKELTQLTELYLYSNKLQSLPAEVGCLVNLMTLALSENSLTSLPDSLDNLKKLRMLDLRHNKLREIPSVVYRLDSLTTLYLRFNRITTVEKDIKNLSKLSMLSIRENKIKQLPAEIGELCNLITLDVAHNQLEHLPKEIGNCTQITNLDLQHNELLDLPDTIGNLSSLSRLGLRYNRLSAIPRSLAKCSALEELNLENNNISTLPESLLSSLVKLNSLTLARNCFQLYPVGGPSQFSTIYSLNMEHNRINKIPFGIFSRAKVLSKLNMKDNQLTSLPLDFGTWTSMVELNLATNQLTKIPEDVSGLVSLEVLILSNNLLKKLPHGLGNLRKLRELDLEENKLESLPNEIAYLKDLQKLVLTNNQLTTLPRGIGHLTNLTHLGLGENLLTHLPEEIGTLENLEELYLNDNPNLHSLPFELALCSKLSIMSIENCPLSHLPPQIVAGGPSFIIQFLKMQGPYRAMV
modifications: GMPPNP
